{"source": "paper PMC11194070", "about": "“Despite the odds: formation of the SARS-CoV-2 methylation complex” (Nucleic Acids Research, 2024)", "binders": {"B1": {"name": "nsp14ExoN, nsp14 without the methyltransferase domain but retaining the exonuclease activity (domain or fragment)", "chain": "AENVTGLFKDCSKVITGLHPTQAPTHLSVDTKFKTEGLCVDIPGIPKDMTYRRLISMMGFKMNYQVNGYPNMFITREEAIRHVRAWIGFDVEGCHATREAVGTNLPLQLGFSTGVNLVAVPTGYVDTPNNTDFSRVSAKPPPGDQFKHLIPLMYKGLPWNVVRIKIVQMLSDTLKNLSDRVVFVLWAHGFELTSMKYFVKIGPERTCCLCDRRATCFSTASDTYACWHHSIGFDYVYNPFMIDVQQWGFTGNLQSNHDLYCQVHGNAHVASCDAIMTRCLAVHECFVKRVDWTIE"}}, "target": "T1, nsp10/16 complex (heterodimer of SARS-CoV-2 nsp10 and nsp16) (SARS-CoV-2, UniProt P0DTD1)", "T1 construct": "also called nsp10/nsp16; nsp10/16 heterodimer", "assay": "MST", "conditions": "both partners purified", "data": [{"binder": "B1", "values": [{"measurement": "Kd", "result": "110 ± 130", "unit": "nM"}]}]}
